Measured values published in US20250186594A1 (BRIGHT PEAK THERAPEUTICS, published 2025).

T1: IL-18 receptor (IL-18R) on HEK-Blue IL18R reporter cells (UniProt Q13478 19-541; O95256 20-599, limits assumed)
T1 sequence (looked up) 1: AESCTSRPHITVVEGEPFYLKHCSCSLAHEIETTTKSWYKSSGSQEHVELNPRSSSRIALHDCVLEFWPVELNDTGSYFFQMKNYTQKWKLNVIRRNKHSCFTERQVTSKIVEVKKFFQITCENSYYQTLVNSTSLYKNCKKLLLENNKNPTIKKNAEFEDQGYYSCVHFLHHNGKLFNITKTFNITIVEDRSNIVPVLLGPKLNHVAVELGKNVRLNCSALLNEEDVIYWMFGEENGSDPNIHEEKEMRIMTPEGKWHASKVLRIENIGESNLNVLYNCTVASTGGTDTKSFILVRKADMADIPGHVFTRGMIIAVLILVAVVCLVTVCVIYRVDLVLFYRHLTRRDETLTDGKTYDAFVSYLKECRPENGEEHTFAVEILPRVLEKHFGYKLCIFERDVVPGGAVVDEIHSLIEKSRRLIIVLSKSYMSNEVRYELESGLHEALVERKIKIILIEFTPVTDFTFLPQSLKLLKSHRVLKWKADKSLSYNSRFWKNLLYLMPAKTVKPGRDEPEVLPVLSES
T1 sequence (looked up) 2: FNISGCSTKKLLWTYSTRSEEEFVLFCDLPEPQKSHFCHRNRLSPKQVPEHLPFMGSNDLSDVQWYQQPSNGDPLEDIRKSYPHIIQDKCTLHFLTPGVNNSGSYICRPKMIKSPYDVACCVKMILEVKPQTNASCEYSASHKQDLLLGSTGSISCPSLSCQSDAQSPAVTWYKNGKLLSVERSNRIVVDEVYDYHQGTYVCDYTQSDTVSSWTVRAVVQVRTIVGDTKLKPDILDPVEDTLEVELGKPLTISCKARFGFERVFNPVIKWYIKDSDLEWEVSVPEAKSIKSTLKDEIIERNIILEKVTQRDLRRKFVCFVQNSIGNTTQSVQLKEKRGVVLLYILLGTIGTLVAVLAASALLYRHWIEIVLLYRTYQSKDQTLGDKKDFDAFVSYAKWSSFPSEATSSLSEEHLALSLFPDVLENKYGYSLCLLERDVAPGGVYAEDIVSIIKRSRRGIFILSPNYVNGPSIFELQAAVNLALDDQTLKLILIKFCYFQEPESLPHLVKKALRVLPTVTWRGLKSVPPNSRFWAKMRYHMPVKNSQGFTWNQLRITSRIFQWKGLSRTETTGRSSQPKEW


Molecular target: T1, IL-18 receptor (IL-18R) on HEK-Blue …
Assay: cell-based or functional assay

EC50, HEK-Blue IL18R reporter [nM] | Binder
15.6 | IL-18 variant SEQ ID NO: 219 (V11I, C38A, K53A, C76A, G108A, C127A) (ligand) YFGKLESKLSIIRNLNDQVLFIDQGNRPLFEDMTDSDARDNAPRTIFIISMYADSQPRGMAVTISVKCEKISTLSAENKIISFKEMNPPDNIKDTKSDIIFFQRSVPAHDNKMQFESSSYEGYFLAAEKERDLFKLILKKEDELGDRSIMFTVQNED
1.5 | IL-18 variant SEQ ID NO: 224 (V11I, C38A, C76A, Q103K, C127A) (ligand) YFGKLESKLSIIRNLNDQVLFIDQGNRPLFEDMTDSDARDNAPRTIFIISMYKDSQPRGMAVTISVKCEKISTLSAENKIISFKEMNPPDNIKDTKSDIIFFKRSVPGHDNKMQFESSSYEGYFLAAEKERDLFKLILKKEDELGDRSIMFTVQNED
7.73 | IL-18 variant SEQ ID NO: 229 (V11I, C38A, C76A, S105K, C127A) (ligand) YFGKLESKLSIIRNLNDQVLFIDQGNRPLFEDMTDSDARDNAPRTIFIISMYKDSQPRGMAVTISVKCEKISTLSAENKIISFKEMNPPDNIKDTKSDIIFFQRKVPGHDNKMQFESSSYEGYFLAAEKERDLFKLILKKEDELGDRSIMFTVQNED
5.37 | IL-18 variant SEQ ID NO: 228 (V11I, C38A, C76A, S105I, C127A) (ligand) YFGKLESKLSIIRNLNDQVLFIDQGNRPLFEDMTDSDARDNAPRTIFIISMYKDSQPRGMAVTISVKCEKISTLSAENKIISFKEMNPPDNIKDTKSDIIFFQRIVPGHDNKMQFESSSYEGYFLAAEKERDLFKLILKKEDELGDRSIMFTVQNED
0.4 | IL-18 variant SEQ ID NO: 235 (E6K, K8E, V11I, C38A, K53A, T63A, C76A, Q103R, C127A) (ligand) YFGKLKSELSIIRNLNDQVLFIDQGNRPLFEDMTDSDARDNAPRTIFIISMYADSQPRGMAVAISVKCEKISTLSAENKIISFKEMNPPDNIKDTKSDIIFFRRSVPGHDNKMQFESSSYEGYFLAAEKERDLFKLILKKEDELGDRSIMFTVQNED
4.73 | IL-18 variant SEQ ID NO: 227 (V11I, C38A, S55T, C76A, C127A) (ligand) YFGKLESKLSIIRNLNDQVLFIDQGNRPLFEDMTDSDARDNAPRTIFIISMYKDTQPRGMAVTISVKCEKISTLSAENKIISFKEMNPPDNIKDTKSDIIFFQRSVPGHDNKMQFESSSYEGYFLAAEKERDLFKLILKKEDELGDRSIMFTVQNED
3.14 | IL-18 variant SEQ ID NO: 225 (V11I, C38A, S55H, C76A, C127A) (ligand) YFGKLESKLSIIRNLNDQVLFIDQGNRPLFEDMTDSDARDNAPRTIFIISMYKDHQPRGMAVTISVKCEKISTLSAENKIISFKEMNPPDNIKDTKSDIIFFQRSVPGHDNKMQFESSSYEGYFLAAEKERDLFKLILKKEDELGDRSIMFTVQNED
2.01 | IL-18 variant SEQ ID NO: 222 (K8R, V11I, C38A, C76A, Q103E, C127A) (ligand) YFGKLESRLSIIRNLNDQVLFIDQGNRPLFEDMTDSDARDNAPRTIFIISMYKDSQPRGMAVTISVKCEKISTLSAENKIISFKEMNPPDNIKDTKSDIIFFERSVPGHDNKMQFESSSYEGYFLAAEKERDLFKLILKKEDELGDRSIMFTVQNED
2.02 | IL-18 variant SEQ ID NO: 221 (V11I, C38A, K53A, C76A, D110A, C127A) (ligand) YFGKLESKLSIIRNLNDQVLFIDQGNRPLFEDMTDSDARDNAPRTIFIISMYADSQPRGMAVTISVKCEKISTLSAENKIISFKEMNPPDNIKDTKSDIIFFQRSVPGHANKMQFESSSYEGYFLAAEKERDLFKLILKKEDELGDRSIMFTVQNED

Further lines, the binder ahead of its results:

Binder | EC50, HEK-Blue IL18R reporter [nM]
IL-18 variant SEQ ID NO: 234 (E6K, V11I, C38A, K53A, T63A, C76A, Q103R, C127A) (ligand) YFGKLKSKLSIIRNLNDQVLFIDQGNRPLFEDMTDSDARDNAPRTIFIISMYADSQPRGMAVAISVKCEKISTLSAENKIISFKEMNPPDNIKDTKSDIIFFRRSVPGHDNKMQFESSSYEGYFLAAEKERDLFKLILKKEDELGDRSIMFTVQNED | 0.26
IL-18 variant SEQ ID NO: 237 (E6K, V11I, C38A, K53A, T63A, C76A, C127A, V153E) (ligand) YFGKLKSKLSIIRNLNDQVLFIDQGNRPLFEDMTDSDARDNAPRTIFIISMYADSQPRGMAVAISVKCEKISTLSAENKIISFKEMNPPDNIKDTKSDIIFFQRSVPGHDNKMQFESSSYEGYFLAAEKERDLFKLILKKEDELGDRSIMFTEQNED | 0.1
IL-18 variant SEQ ID NO: 223 (K8E, V11I, C38A, C76A, Q103R, C127A) (ligand) YFGKLESELSIIRNLNDQVLFIDQGNRPLFEDMTDSDARDNAPRTIFIISMYKDSQPRGMAVTISVKCEKISTLSAENKIISFKEMNPPDNIKDTKSDIIFFRRSVPGHDNKMQFESSSYEGYFLAAEKERDLFKLILKKEDELGDRSIMFTVQNED | 2.3
IL-18 variant SEQ ID NO: 220 (V11I, C38A, K53A, C76A, H109A, C127A) (ligand) YFGKLESKLSIIRNLNDQVLFIDQGNRPLFEDMTDSDARDNAPRTIFIISMYADSQPRGMAVTISVKCEKISTLSAENKIISFKEMNPPDNIKDTKSDIIFFQRSVPGADNKMQFESSSYEGYFLAAEKERDLFKLILKKEDELGDRSIMFTVQNED | 19.5
IL-18 variant SEQ ID NO: 233 (E6K, V11I, C38A, I49R, K53A, T63A, C76A, C127A) (ligand) YFGKLKSKLSIIRNLNDQVLFIDQGNRPLFEDMTDSDARDNAPRTIFIRSMYADSQPRGMAVAISVKCEKISTLSAENKIISFKEMNPPDNIKDTKSDIIFFQRSVPGHDNKMQFESSSYEGYFLAAEKERDLFKLILKKEDELGDRSIMFTVQNED | 0.04
IL-18 variant SEQ ID NO: 238 (E6K, V11I, C38A, K53A, T63A, C76A, C127A, V153Y) (ligand) YFGKLKSKLSIIRNLNDQVLFIDQGNRPLFEDMTDSDARDNAPRTIFIISMYADSQPRGMAVAISVKCEKISTLSAENKIISFKEMNPPDNIKDTKSDIIFFQRSVPGHDNKMQFESSSYEGYFLAAEKERDLFKLILKKEDELGDRSIMFTYQNED | 0.08
IL-18 variant SEQ ID NO: 230 (K8L, E6K, V11I, C38A, K53A, T63A, C76A, C127A) (ligand) YFGKLKSLLSIIRNLNDQVLFIDQGNRPLFEDMTDSDARDNAPRTIFIISMYADSQPRGMAVAISVKCEKISTLSAENKIISFKEMNPPDNIKDTKSDIIFFQRSVPGHDNKMQFESSSYEGYFLAAEKERDLFKLILKKEDELGDRSIMFTVQNED | 0.29
IL-18 variant SEQ ID NO: 226 (V11I, C38A, S55R, C76A, C127A) (ligand) YFGKLESKLSIIRNLNDQVLFIDQGNRPLFEDMTDSDARDNAPRTIFIISMYKDRQPRGMAVTISVKCEKISTLSAENKIISFKEMNPPDNIKDTKSDIIFFQRSVPGHDNKMQFESSSYEGYFLAAEKERDLFKLILKKEDELGDRSIMFTVQNED | 1.91
IL-18 variant SEQ ID NO: 232 (E6K, V11I, C38A, I49M, K53A, T63A, C76A, C127A) (ligand) YFGKLKSKLSIIRNLNDQVLFIDQGNRPLFEDMTDSDARDNAPRTIFIMSMYADSQPRGMAVAISVKCEKISTLSAENKIISFKEMNPPDNIKDTKSDIIFFQRSVPGHDNKMQFESSSYEGYFLAAEKERDLFKLILKKEDELGDRSIMFTVQNED | 0.07
